From patent publication US20110076705A1

Target: 2D9-binding PAGs (immuno-affinity purified PAGs used as ELISA standards)
Assay: sandwich ELISA on 2D9-coated plates with immuno-affinity purified PAG standards, log-logit transformation, SoftMax

Kd: 900 pM
B1: monoclonal antibody 2D9 (antibody, mouse IgG1, kappa, V domains shown)
VH: QVQLQQSGAELMKPGASVKISCKATGYIFSNYWMEWVKQRPGHGLEWIGEILPGSDITNYNEKFKDKATFTADSSSNTAYMQLSSLTSEDSAVYYCARAGSGYYGVYYYAMDYWGQGTSVTVSS
VL: DVLMTQTPLSLPVSLGDQASISCRSRQSIVHSNGNTYLEWFLQKPGQSPKLLIYKVSNRFSGVPDRFSGSGSGTDFTLKISRVEAEDLGVYYCFQGSHVPLTFGAGTKLELKR
